Source: US10588946B2, “Peptide for promoting bone formation or inhibiting bone resorption and use thereof” (SEOUL NATIONAL UNIVERSITY R&DB FOUNDATION, priority 2015, dated 2020)
“Also recorded” adds a separate entry of the source. Where no end group is shown, it is not given here.

Columns and labels:
BMMs = assay: Proliferation and viability of BMMs; type: cell-based, mouse; details: 9.1 μg/cm^2
mature osteoclasts = assay: Viability of mature osteoclasts (surviving osteoclasts after TRAP staining); type: cell-based, mouse; details: 24 hours, 9.1 μg/cm^2
Description: The results of FIGS. 12b and 12c are expressed as mean±S.D. (n=4) ([…].)
Mature osteoclasts were cultured for 24 hours on Osteo Assay Surface plates precoated with vehicle (DMSO), SP (9.1 μg/cm^2), or VnP-16 (9.1 μg/cm^2), in the presence of M-CSF (30 ng/mL) and RANKL (100 ng/mL).

[1] = tested on: osteogenic cells, NHDFs, NHOFs, MC3T3-E1, and NIH/3T3 cells; assay: Cell viability assay (water-soluble tetrazolium salt, WST); type: cell-based, human; details: VnP-16 for 24 hours and 48 hours
Description: The viability of human osteogenic cells was analyzed using the EZ-Cytox cell viability assay kit (water-soluble tetrazolium salt (WST) assay; Daeillab). Osteogenic cells (3×10^3 cells/100 μL) were seeded on a 96-well microplate, adapted for 48 hours, and treated with 50 μg/mL, 100 μg/mL, or 200 μg/mL of VnP-16 at 37° C. for 24 hours or 48 hours. The WST reagent solution (10 μL) was added to each well of the 96-well microplate containing 100 μL of cells. The plate was incubated at 37° C. for 2 hours. The absorbance was measured at 450 nm using a microplate reader (BioRad).

osteogenic cells [2] = assay: Adhesion inhibition assay (cell attachment to VnP-16 after preincubation); type: cell-based, human; details: 5 mM EDTA, 500 μM MnCl2, 100 μg/mL heparin, 10 μg/mL blocking antibody; VnP-16 9.1 μg/cm^2, 1 hour
Description: Cells (5×10^4 cells/250 μL) were preincubated with 5 mM EDTA, 500 μM MnCl2, 100 μg/mL heparin, and 10 μg/mL function-blocking antibodies against integrin α1 (FB12), α2 (P1E6), α3 (P1B5), α4 (P4C2), α5 (P1D6), α6 (NKI-GoH3), β3 (B3A; Chemicon), av (AV1), β1 (6S6; Millipore), or β3 (B3A) subunits at 37° C. for 15 minutes. […] The attached cells were quantified as described in Example 6.

[3] = tested on: osteoblast precursors and osteogenic cells
Description: SKP-derived mesenchymal cells (MSCs), mouse calvarial osteoblast precursors (MC3T3-E1), and human osteogenic cells (Osteogenic) were cultured on VnP-16 (9.1 μg/cm^2)-coated plates in osteogenic differentiation medium with or without PF-573228 (1 μM) for 2 weeks.
To visualize mineral deposits, cells were fixed with cold 95% ethanol for 30 minutes at −20° C. for 30 minutes and stained with 40 mM Alizarin red S solution (pH 4.2) for 1 hour. The stained cells were washed five times with DDW and rinsed with PBS for 15 minutes.

FAK = FAK (Homo sapiens, UniProt Q05397); details: pretreated 1 hour; VnP-16 9.1 μg/cm^2
β1 integrin = biological target: T1, β1 integrin (Homo sapiens, UniProt P05556); assay: Pulldown assay with biotinylated VnP-16; type: binding; details: human osteogenic cells and HOS cells, 3 hours; vs streptavidin beads alone
T1 construct: osteogenic cells that were transfected with a control (Con) siRNA (10 nM) or β1 integrin siRNA (10 nM); endogenous in cells; host or cells: human osteogenic cells differentiated from foreskin skin-derived precursors (SKPs)
Description: Pulldown assays were performed using a biotinylated VnP-16 peptide according to a known method (Bottcher, R. T., Bio protocol 3, e962 (2013)). […] Cells (3×10^6) were seeded onto 100 mm culture dishes coated with biotin-conjugated VnP-16 peptides, incubated for 3 hours, and washed twice with cold PBS. The cells were scraped with 500 μL lysis buffer (50 mM Tris-HCl, pH 7.5, 150 mM NaCl, 0.1% Na-deoxycholate, 1% Triton X-100, protease, and phosphatase inhibitor cocktail tablets) followed by passing the lysates 15 times through a 26.5-gauge needle and centrifuging at 17,000×g for 10 minutes at 4° C. The supernatants of the cell lysates were incubated with 60 μL of streptavidin-agarose beads (Thermo Fisher Scientific, Waltham, Mass.) and centrifuged at 1,500×g for 2 minutes at 4° C. After washing the beads four times with lysis buffer, the precipitated proteins were resolved by 8% SDS-PAGE and analyzed by immunoblotting.

[4] = tested on: rat models with critical-size calvarial defects; assay: Rat critical-size calvarial defect model; type: in vivo; details: collagen sponge implant, two weeks after surgery
Description: For critical-size calvarial defects, 8-week-old male Sprague-Dawley rats (n=5 rats/group) were used. VnP-16 was dissolved in DDW and SP in DMSO (5 mg/mL) and then diluted with DDW. Absorbable collagen sponges (Bioland) were loaded with human recombinant BMP-2 (4 μg/cm^2, 15 μL volume; PeproTech), synthetic peptides (1 mg/cm^2 and 2 mg/cm^2, 15 μL volume), or vehicle (10 μL of DMSO and 5 μL of DDW). The surgical procedures for the creation of an 8 mm circular defect in the parietal bone and implantation of the collagen sponge were performed as described in the reference (Lee, J. H., et al., Biomaterials, 31, 3512 to 3519 (2010)). The rats were euthanized at 2 weeks after surgery, and whole calvaria were fixed in 4% paraformaldehyde at 4° C. for 24 hours and analyzed by μCT scanning. Details for the μCT scans are illustrated below.
For histomorphometric analysis, the specimens were decalcified with 12% EDTA for 4 weeks and embedded in paraffin. […] The mice were sacrificed on day 7, and the whole calvariae were dissected, cleaned of soft tissue, fixed in 4% paraformaldehyde at 4° C. for 24 hours, subjected to TRAP staining, and then analyzed by μCT scanning. μCT was performed with the Micro-CT Skyscan 1172 system (70 kV, 141 μA, and 38 minutes integration time; Skyscan). […] The regenerated bone volume and bone mineral content were calculated with CT Analyser version 1.14.4.1 (Bruker-microCT). […]

osteogenic cells [5] = assay: Cell spreading assay on coated plates; type: cell-based, human; details: serum-free medium, 3 hours
Source text: (§1) Plates were gently washed three times with PBS.

human osteogenic cells = assay: Cell attachment assay on coated plates; type: cell-based; details: for cell attachment activity of osteogenic cells: substrate-coated plates, serum-free medium, 1 hour; for coating concentration at which cell attachment activity reached a maximum level: osteogenic cells, dose-response
Source text: as §1

osteogenic cells [6] = assay: Cell migration assay (transwell); type: cell-based, human; details: 24 hours
Description: Cell migration assays were performed with transwell migration chambers (pore size, 8 μm; Corning). […] Cells (2×10^5 cells/mL) were resuspended in DMEM containing 0.5% FBS and 0.1% BSA. This suspension (100 μL) was seeded in the upper chamber of a transwell filter. After seeding the […] (100 μL) to the upper chamber of the transwell migration chambers, the cells were allowed to migrate at 37° C. for 24 hours. Cells were then fixed with 10% formalin for 15 minutes and stained with 0.5% crystal violet. Unmigrated cells, those remaining in the upper side of the transwell filter, were removed with a cotton swab and counted under light microscopy. Cell migration was quantified by counting the number of cells that had migrated through the filter.

[7] = VnP-16-coated plates, osteogenic differentiation medium, PF-573228 1 μM, 2 weeks

T1 sequence (P05556 21-798): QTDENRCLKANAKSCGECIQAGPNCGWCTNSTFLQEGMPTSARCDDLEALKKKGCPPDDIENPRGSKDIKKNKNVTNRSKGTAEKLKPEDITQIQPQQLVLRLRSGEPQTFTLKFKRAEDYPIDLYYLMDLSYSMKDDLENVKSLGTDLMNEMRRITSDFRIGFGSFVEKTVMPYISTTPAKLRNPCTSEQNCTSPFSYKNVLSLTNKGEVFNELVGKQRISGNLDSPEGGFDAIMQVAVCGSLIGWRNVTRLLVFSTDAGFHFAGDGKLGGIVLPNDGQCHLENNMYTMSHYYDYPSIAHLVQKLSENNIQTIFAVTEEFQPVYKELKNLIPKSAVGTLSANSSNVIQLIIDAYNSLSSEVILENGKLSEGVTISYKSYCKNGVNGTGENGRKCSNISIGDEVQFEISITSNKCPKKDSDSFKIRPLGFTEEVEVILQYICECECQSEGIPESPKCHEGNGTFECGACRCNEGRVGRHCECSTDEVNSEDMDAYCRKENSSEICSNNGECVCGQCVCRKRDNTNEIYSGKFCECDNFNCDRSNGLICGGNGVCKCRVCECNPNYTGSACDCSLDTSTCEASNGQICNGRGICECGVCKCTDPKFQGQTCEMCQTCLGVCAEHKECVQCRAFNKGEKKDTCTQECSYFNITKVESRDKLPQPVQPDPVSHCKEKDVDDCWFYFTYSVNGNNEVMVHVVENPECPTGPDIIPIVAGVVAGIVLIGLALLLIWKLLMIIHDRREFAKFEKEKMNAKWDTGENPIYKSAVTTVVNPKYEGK
Chain of FAK (Q05397 whole entry): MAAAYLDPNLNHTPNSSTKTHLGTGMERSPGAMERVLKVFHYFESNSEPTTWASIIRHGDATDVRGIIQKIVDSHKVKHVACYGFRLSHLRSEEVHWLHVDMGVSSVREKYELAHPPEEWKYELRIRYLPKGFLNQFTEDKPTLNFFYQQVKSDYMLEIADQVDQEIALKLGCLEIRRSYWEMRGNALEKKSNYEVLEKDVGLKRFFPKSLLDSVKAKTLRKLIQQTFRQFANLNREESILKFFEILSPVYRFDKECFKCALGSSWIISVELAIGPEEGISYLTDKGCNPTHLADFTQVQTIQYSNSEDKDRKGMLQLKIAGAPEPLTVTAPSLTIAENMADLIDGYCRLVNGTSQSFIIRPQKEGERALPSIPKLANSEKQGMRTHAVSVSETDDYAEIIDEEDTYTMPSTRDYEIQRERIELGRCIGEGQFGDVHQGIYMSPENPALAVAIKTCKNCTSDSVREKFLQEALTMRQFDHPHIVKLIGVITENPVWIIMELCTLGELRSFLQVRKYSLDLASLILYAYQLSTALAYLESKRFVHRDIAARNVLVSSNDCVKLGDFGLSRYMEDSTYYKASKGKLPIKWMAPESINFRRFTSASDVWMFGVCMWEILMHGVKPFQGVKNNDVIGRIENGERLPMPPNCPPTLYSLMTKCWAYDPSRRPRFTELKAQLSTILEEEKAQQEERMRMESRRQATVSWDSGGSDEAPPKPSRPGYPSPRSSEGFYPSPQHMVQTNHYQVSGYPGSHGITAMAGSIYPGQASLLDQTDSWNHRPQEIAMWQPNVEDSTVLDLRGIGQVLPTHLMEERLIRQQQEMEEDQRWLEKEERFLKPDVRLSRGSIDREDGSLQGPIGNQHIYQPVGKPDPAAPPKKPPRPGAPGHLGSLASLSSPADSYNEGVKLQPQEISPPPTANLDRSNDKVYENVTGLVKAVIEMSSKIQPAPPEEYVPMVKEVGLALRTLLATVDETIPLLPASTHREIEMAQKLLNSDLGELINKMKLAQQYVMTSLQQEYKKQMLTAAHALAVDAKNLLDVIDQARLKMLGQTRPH

In the case of “RVYFFKGKQYWE-NH2 [VnP-16, RVYFFKGKQYWE (SEQ ID NO: 17)]”, the “cell proliferation and viability of BMMs” value (BMMs) is reported as “did not affect”, the viability of osteoclasts (mature osteoclasts) is reported as “no effect” and the “viability of cells or cell lines tested” value [1] is reported as “did not affect”.

In the case of heparin, the “cell attachment to VnP-16 after pretreatment of cells” value (“cell attachment … of cells” below) (osteogenic cells [2]) is reported as “not inhibited”.

With `O=C(O)CN(CCN(CC(=O)O)CC(=O)O)CC(=O)O` [EDTA] the “cell attachment … of cells” value (osteogenic cells [2]) was “completely inhibited”.

With `CS(=O)(=O)c1cccc(CNc2nc(Nc3ccc4c(c3)CCC(=O)N4)ncc2C(F)(F)F)c1` [PF-573228] the cell growth [3] was “did not affect”, the “alkaline phosphatase (ALP) activity” value [3, 7] was “notably weakened” and the calcium deposition [3, 7] was “reduced”. For the same molecule, the “cell attachment to VnP-16 after pretreatment of PF-573228” value (FAK) was “significantly inhibited in a dose-dependent manner”.

With `[Cl][Mn][Cl]` [Mn^2+, MnCl2] the “cell attachment … of cells” value (osteogenic cells [2]) was “significantly enhanced”.

In the case of “biotinylated VnP-16: biotin-conjugated VnP-16 peptide used for pulldown (RVYFFKGKQYWE-NH2; also: biotinylated)”, the “binding of β1 integrin in pulldown” value (β1 integrin) is reported as “selectively bound”.

For “FVWRQFYKYEKG (SEQ ID NO: 23) (Scrambled peptide) [SP, scrambled peptide used as control, reference compound]”, the “new bone formation in calvarial defects (μCT images)” value [4] was “only limited new bone formation” and the cell spreading (osteogenic cells [5]) was “ineffective”.

B1: rVn-FIII: recombinant human vitronectin truncation III expressed in E. coli (protein)
chain: GRTSAGTRQPQFISRDWHGVPGQVDAAMAGRIYISGMAPRPSLAKKQRFRHRNRKGYRSQRGHSRGRNQNSRRPSRATWLSLFSSEESNLGANNYDDYRMDWLVPATCEPIQSVFFFSGDKYYRVNLRTRRVDTVDPPYPRSIAQYWLGCPAPGHL
modifications: rVn-FIII
notes: recombinant human vitronectin truncation III expressed in E. coli
In the case of B1, the “cell attachment activity of osteogenic cells” value (human osteogenic cells) is reported as “did not adhere”, the cell migration (osteogenic cells [6]) is reported as “induced no cell spreading or migration” and the cell spreading (osteogenic cells [5]) is reported as “induced no cell spreading or migration”.

B2: rVn-FI: recombinant human vitronectin truncation I expressed in E. coli (protein)
chain: DQESCKGRCTEGFNVDKKCQCDELCSYYQSCCTDYTAECKPQVTRGDVFTMPEDEYTVYDDGEEKNNATVHEQVGGPSLTSDLQAQSKGNPEQTPVLKPEEEAPAPEVGASKPEGIDSRPETLHPGRPQP
modifications: rVn-FI
notes: recombinant human vitronectin truncation I expressed in E. coli
B2 was tested, and the “coating concentration at which cell attachment activity reached a maximum level” value (human osteogenic cells) was “about 5.7 μg/cm^2”, the “cell attachment activity of osteogenic cells” value (human osteogenic cells) was “adhered; also recorded: promoted cell attachment, although to a lower extent than full-length vitronectin” and the cell migration (osteogenic cells [6]) was “induced cell spreading and migration”. The cell spreading (osteogenic cells [5]) was “induced cell spreading and migration”.

B3: human plasma vitronectin: Human vitronectin purchased from Millipore (protein, UniProt P04004 20-478, looked up)
Vitronectin: DQESCKGRCTEGFNVDKKCQCDELCSYYQSCCTDYTAECKPQVTRGDVFTMPEDEYTVYDDGEEKNNATVHEQVGGPSLTSDLQAQSKGNPEQTPVLKPEEEAPAPEVGASKPEGIDSRPETLHPGRPQPPAEEELCSGKPFDAFTDLKNGSLFAFRGQYCYELDEKAVRPGYPKLIRDVWGIEGPIDAAFTRINCQGKTYLFKGSQYWRFEDGVLDPDYPRNISDGFDGIPDNVDAALALPAHSYSGRERVYFFKGKQYWEYQFQHQPSQEECEGSSLSAVFEHFAMMQRDSWEDIFELLFWGRTSAGTRQPQFISRDWHGVPGQVDAAMAGRIYISGMAPRPSLAKKQRFRHRNRKGYRSQRGHSRGRNQNSRRPSRATWLSLFSSEESNLGANNYDDYRMDWLVPATCEPIQSVFFFSGDKYYRVNLRTRRVDTVDPPYPRSIAQYWLGCPAPGHL
With B3 the “cell attachment activity of osteogenic cells” value (human osteogenic cells) was “strongly promoted”, the cell migration (osteogenic cells [6]) was “strongly promoted” and the cell spreading (osteogenic cells [5]) was “strongly promoted”.

B4: rVn-FII: recombinant human vitronectin truncation, 173 residues, amino acids at positions 150 to 322 (protein)
chain: PAEEELCSGKPFDAFTDLKNGSLFAFRGQYCYELDEKAVRPGYPKLIRDVWGIEGPIDAAFTRINCQGKTYLFKGSQYWRFEDGVLDPDYPRNISDGFDGIPDNVDAALALPAHSYSGRERVYFFKGKQYWEYQFQHQPSQEECEGSSLSAVFEHFAMMQRDSWEDIFELLFW
modifications: rVn-FII
With B4 the “coating concentration at which cell attachment activity reached a maximum level” value (human osteogenic cells) was “about 5.7 μg/cm^2”, the “cell attachment activity of osteogenic cells” value (human osteogenic cells) was “lower cell attachment activity compared to that of rVn-FI; also recorded: adhered; also recorded: promoted cell attachment, although to a lower extent than full-length vitronectin; also recorded: significant cell attachment activity” and the cell migration (osteogenic cells [6]) was “induced no cell spreading or migration”. For the same molecule, the cell spreading (osteogenic cells [5]) was “induced no cell spreading or migration”.
